T1: B3GNT2 (Homo sapiens, UniProt Q9NY97)
T1 construct: The respective ORFs of candidate genes [CD274 (NM_014143), MCL1 (NM_021960), JUNB (NM_002229), and B3GNT2 (NM_006577)] were synthesized; expressed in transfected cells; host or cells: A375 melanoma cells (lentiviral ORF overexpression)
T1 sequence (Q9NY97 1-397): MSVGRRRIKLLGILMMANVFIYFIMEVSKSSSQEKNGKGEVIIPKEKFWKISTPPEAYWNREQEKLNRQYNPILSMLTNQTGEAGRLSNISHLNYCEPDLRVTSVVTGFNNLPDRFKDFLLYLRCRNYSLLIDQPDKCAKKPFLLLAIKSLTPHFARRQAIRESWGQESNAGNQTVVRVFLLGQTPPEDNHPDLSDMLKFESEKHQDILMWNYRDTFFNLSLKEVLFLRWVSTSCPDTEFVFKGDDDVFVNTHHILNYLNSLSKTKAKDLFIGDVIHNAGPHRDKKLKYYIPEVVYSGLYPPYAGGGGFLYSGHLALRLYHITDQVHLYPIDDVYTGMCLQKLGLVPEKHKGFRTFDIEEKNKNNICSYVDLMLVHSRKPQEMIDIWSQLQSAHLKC

B1: UBAP2L (protein)
chain: MMTSVGTNRARGNWEQPQNQNQTQHKQRPQATAEQIRLAQMISDHNDADFEEKVKQLIDITGKNQDECVIALHDCNGDVNRAINVLLEGNPDTHSWEMVGKKKGVSGQKDGGQTESNEEGKENRDRDRDYSRRRGGPPRRGRGASRGREFRGQENGLDGTKSGGPSGRGTERGRRGRGRGRGGSGRRGGRFSAQGMGTFNPADYAEPANTDDNYGNSSGNTWNNTGHFEPDDGTSAWRTATEEWGTEDWNEDLSETKIFTASNVSSVPLPAENVTITAGQRIDLAVLLGKTPSTMENDSSNLDPSQAPSLAQPLVFSNSKQTAISQPASGNTFSHHSMVSMLGKGFGDVGEAKGGSTTGSQFLEQFKTAQALAQLAAQHSQSGSTTTSSWDMGSTTQSPSLVQYDLKNPSDSAVHSPFTKRQAFTPSSTMMEVFLQEKSPAVATSTAAPPPPSSPLPSKSTSAPQMSPGSSDNQSSSPQPAQQKLKQQKKKASLTSKIPALAVEMPGSADISGLNLQFGALQFGSEPVLSDYESTPTTSASSSQAPSSLYTSTASESSSTISSNQSQESGYQSGPIQSTTYTSQNNAQGPLYEQRSTQTRRYPSSISSSPQKDLTQAKNGFSSVQATQLQTTQSVEGATGSAVKSDSPSTSSIPPLNETVSAASLLTTTNQHSSSLGGLSHSEEIPNTTTTQHSSTLSTQQNTLSSSTSSGRTSTSTLLHTSVESEANLHSSSSTFSTTSSTVSAPPPVVSVSSSLNSGSSLGLSLGSNSTVTASTRSSVATTSGKAPPNLPPGVPPLLPNPYIMAPGLLHAYPPQVYGYDDLQMLQTRFPLDYYSIPFPTPTTPLTGRDGSLASNPYSGDLTKFGRGDASSPAPATTLAQPQQNQTQTHHTTQQTFLNPALPPGYSYTSLPYYTGVPGLPSTFQYGPAVFPVAPTSSKQHGVNVSVNASATPFQQPSGYGSHGYNTGVSVTSSNTGVPDISGSVYSKTQQSFEKQGFHSGTPAASFNLPSALGSGGPINPATAAAYPPAPFMHILTPHQQPHSQILHHHLQQDGQTGSGQRSQTSSIPQKPQTNKSAYNSYSWGAN
B2: EIF5B (protein)
chain: MGKKQKNKSEDSTKDDIDLDALAAEIEGAGAAKEQEPQKSKGKKKKEKKKQDFDEDDILKELEELSLEAQGIKADRETVAVKPTENNEEEFTSKDKKKKGQKGKKQSFDDNDSEELEDKDSKSKKTAKPKVEMYSGSDDDDDFNKLPKKAKGKAQKSNKKWDGSEEDEDNSKKIKERSRINSSGESGDESDEFLQSRKGQKKNQKNKPGPNIESGNEDDDASFKIKTVAQKKAEKKERERKKRDEEKAKLRKLKEKEELETGKKDQSKQKESQRKFEEETVKSKVTVDTGVIPASEEKAETPTAAEDDNEGDKKKKDKKKKKGEKEEKEKEKKKGPSKATVKAMQEALAKLKEEEERQKREEEERIKRLEELEAKRKEEERLEQEKRERKKQKEKERKERLKKEGKLLTKSQREARARAEATLKLLQAQGVEVPSKDSLPKKRPIYEDKKRKKIPQQLESKEVSESMELCAAVEVMEQGVPEKEETPPPVEPEEEEDTEDAGLDDWEAMASDEETEKVEGNKVHIEVKENPEEEEEEEEEEEEDEESEEEEEEEGESEGSEGDEEDEKVSDEKDSGKTLDKKPSKEMSSDSEYDSDDDRTKEERAYDKAKRRIEKRRLEHSKNVNTEKLRAPIICVLGHVDTGKTKILDKLRHTHVQDGEAGGITQQIGATNVPLEAINEQTKMIKNFDRENVRIPGMLIIDTPGHESFSNLRNRGSSLCDIAILVVDIMHGLEPQTIESINLLKSKKCPFIVALNKIDRLYDWKKSPDSDVAATLKKQKKNTKDEFEERAKAIIVEFAQQGLNAALFYENKDPRTFVSLVPTSAHTGDGMGSLIYLLVELTQTMLSKRLAHCEELRAQVMEVKALPGMGTTIDVILINGRLKEGDTIIVPGVEGPIVTQIRGLLLPPPMKELRVKNQYEKHKEVEAAQGVKILGKDLEKTLAGLPLLVAYKEDEIPVLKDELIHELKQTLNAIKLEEKGVYVQASTLGSLEALLEFLKTSEVPYAGINIGPVHKKDVMKASVMLEHDPQYAVILAFDVRIERDAQEMADSLGVRIFSAEIIYHLFDAFTKYRQDYKKQKQEEFKHIAVFPCKIKILPQYIFNSRDPIVMGVTVEAGQVKQGTPMCVPSKNFVDIGIVTSIEINHKQVDVAKKGQEVCVKIEPIPGESPKMFGRHFEATDILVSKISRQSIDALKDWFRDEMQKSDWQLIVELKKVFEII
B3: PUM1 (protein)
chain: SVACVLKRKAVLWQDSFSPHLKHHPQEPANPNMPVVLTSGTGSQAQPQPAANQALAAGTHSSPVPGSIGVAGRSQDDAMVDYFFQRQHGEQLGGGGSGGGGYNNSKHRWPTGDNIHAEHQVRSMDELNHDFQALALEGRAMGEQLLPGKKFWETDESSKDGPKGIFLGDQWRDSAWGTSDHSVSQPIMVQRRPGQSFHVNSEVNSVLSPRSESGGLGVSMVEYVLSSSPGDSCLRKGGFGPRDADSDENDKGEKKNKGTFDGDKLGDLKEEGDVMDKTNGLPVQNGIDADVKDFSRTPGNCQNSANEVDLLGPNQNGSEGLAQLTSTNGAKPVEDFSNMESQSVPLDPMEHVGMEPLQFDYSGTQVPVDSAAATVGLFDYNSQQQLFQRPNALAVQQLTAAQQQQYALAAAHQPHIGLAPAAFVPNPYIISAAPPGTDPYTAGLAAAATLGPAVVPHQYYGVTPWGVYPASLFQQQAAAAAAATNSANQQTTPQAQQGQQQVLRGGASQRPLTPNQNQQGQQTDPLVAAAAVNSALAFGQGLAAGMPGYPVLAPAAYYDQTGALVVNAGARNGLGAPVRLVAPAPVIISSSAAQAAVAAAAASANGAAGGLAGTTNGPFRPLGTQQPQPQPQQQPNNNLASSSFYGNNSLNSNSQSSSLFSQGSAQPANTSLGFGSSSSLGATLGSALGGFGTAVANSNTGSGSRRDSLTGSSDLYKRTSSSLTPIGHSFYNGLSFSSSPGPVGMPLPSQGPGHSQTPPPSLSSHGSSSSLNLGGLTNGSGRYISAAPGAEAKYRSASSASSLFSPSSTLFSSSRLRYGMSDVMPSGRSRLLEDFRNNRYPNLQLREIAGHIMEFSQDQHGSRFIQLKLERATPAERQLVFNEILQAAYQLMVDVFGNYVIQKFFEFGSLEQKLALAERIRGHVLSLALQMYGCRVIQKALEFIPSDQQVINEMVRELDGHVLKCVKDQNGNHVVQKCIECVQPQSLQFIIDAFKGQVFALSTHPYGCRVIQRILEHCLPDQTLPILEELHQHTEQLVQDQYGNYVIQHVLEHGRPEDKSKIVAEIRGNVLVLSQHKFASNVVEKCVTHASRTERAVLIDEVCTMNDGPHSALYTMMKDQYANYVVQKMIDVAEPGQRKIVMHKIRPHIATLRKYTYGKHILAKLEKYYMKNGVDLGPICGPPNGII
B4: RBM39 (protein)
chain: ADDIDIEAMLEAPYKKDENKLSSANGHEERSKKRKKSKSRSRSHERKRSKSKERKRSRDRERKKSKSRERKRSRSKERRRSRSRSRDRRFRGRYRSPYRRRSRSKSPFRKDKSPVREPIDNLTPEERDARTVFCMQLAARIRPRDLEEFFSTVGKVRDVRMISDRNSRRSKGIAYVEFVDVSSVPLAIGLTGQRVLGVPIIVQASQAEKNRAAAMANNLQKGSAGPMRLYVGSLHFNITEDMLRGIFEPFGRIESIQLMMDSETGRSKGYGFITFSDSECAKKALEQLNGFELAGRPMKVGHVTERTDASSASSFLDSDELERTGIDLGTTGRLQLMARLAEGTGLQIPPAAQQALQMSGSLAFGAVAEFSFVIDLQTRLSQQTEASALAAAASVQPLATQCFQLSNMFNPQTEEEVGWDTEIKDDVIEECNKHGGVIHIYVDKNSAQGNVYVKCPSIAAAIAAVNALHGRWFAGKMITAAYVPLPTYHNLFPDSMTATQLLVPSRR
B5: DDOST (protein)
chain: SGPRTLVLLDNLNVRETHSLFFRSLKDRGFELTFKTADDPSLSLIKYGEFLYDNLIIFSPSVEDFGGNINVETISAFIDGGGSVLVAASSDIGDPLRELGSECGIEFDEEKTAVIDHHNYDISDLGQHTLIVADTENLLKAPTIVGKSSLNPILFRGVGMVADPDNPLVLDILTGSSTSYSFFPDKPITQYPHAVGKNTLLIAGLQARNNARVIFSGSLDFFSDSFFNSAVQKAAPGSQRYSQTGNYELAVALSRWVFKEEGVLRVGPVSHHRVGETAPPNAYTVTDLVEYSIVIQQLSNGKWVPFDGDDIQLEFVRIDPFVRTFLKKKGGKYSVQFKLPDVYGVFQFKVDYNRLGYTHLYSSTQVSVRPLQHTQYERFIPSAYPYYASAFSMMLGLFIFSIVFLHMKEKEKSD

Target: T1, B3GNT2
Experiment: Co-IP of FLAG-tagged B3GNT2 followed by mass spectrometry
Type: cell-based
Parameters: C-term IgG / C-term flag: unit not given here
Summary of the method: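 FLAG-tagged B3GNT2 immunoprecipitated from cell lysate (HEPES, 1% Triton X-100, 150 mM NaCl) with anti-FLAG versus […], overnight at 4° C, then captured on Protein A/G magnetic beads for 4 h. Two biological replicates per condition. Peptides fractionated and analyzed by nano-LC on an Orbitrap Elite in data-dependent mode.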

[1] = Co-IP followed by mass spectrometry of B3GNT2, C-term tag, FLAG pull-down
[2] = Co-IP followed by mass spectrometry of B3GNT2, C-term tag, IgG pull-down
[3] = Co-IP followed by mass spectrometry of B3GNT2, N-term tag, FLAG pull-down
[4] = Co-IP followed by mass spectrometry of B3GNT2, N-term tag, IgG pull-down

Molecule | C-term flag [1] | C-term IgG [2] | N-term FLAG [3] | N-term IgG [4] | C-term flag (Co-IP with FLAG antibody, C-terminally FLAG-tagged B3GNT2, mass spectrometry count, unit not given) | N-term FLAG (Co-IP with FLAG antibody, N-terminally FLAG-tagged B3GNT2, mass spectrometry count, unit not given) | C-term IgG (Co-IP with IgG control antibody, C-terminally FLAG-tagged B3GNT2, mass spectrometry count, unit not given) | N-term IgG (Co-IP with IgG control antibody, N-terminally FLAG-tagged B3GNT2, mass spectrometry count, unit not given)
B1 | 19 | 15 | 20 | 20 |  |  |  | 
B2 | 3 | 0 | 0 | 0 |  |  |  | 
B3 | 3 | 0 | 0 | 0 |  |  |  | 
B4 | 5 | 3 | 4 | 5 |  |  |  | 
B5 |  |  |  |  | 3 | 0 | 0 | 0

Reference: patent US20240261333A1, “NOVEL TARGETS FOR ENHANCING ANTI-TUMOR IMMUNITY” (THE BROAD INSTITUTE, INC., priority 2021, published 2024)
